Laboratory results from the supplement of paper PMC10567573.

B1: BTBD10 (parent)
chain: FVYENAKEGARNIRTSERVTLIVD
B2: C8orf76 (parent)
chain: KLAEAYLNLGPALSAALASSQKQH

Variants of: B1
Assay: protein stability index of a GFP-peptide fusion (GPS, HEK-293T) (PSI 1-6); higher = more stable
Settings: c terminus: a fixed tail appended
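Note: lentivirally expressed fusions sorted by FACS into six bins by GFP to DsRed ratio, PSI derived from sequencing read proportions per bin multiplied by bin number.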

Protein stability index of substitutions, site by site:
V2: D 3.56; H 3.07; N 3.58; T 3.08; A 2.78; E 3.83; P 3.53; S 3.27; M 2.6; W 1.97; I 2.37; Q 3.07; L 2.41; G 3.31; K 3.06; C 2.33; R 3.04; F 2.31; Y 2.45
E4: V 2.83; G 1.75; S 1.66; P 1.69; F 1.65; M 1.91; H 2.16; D 2.08; K 2.25; Q 1.94; I 2.35; C 2.56; Y 1.92; L 1.48; A 1.82; N 1.57; W 1.83; R 1.91; T 2.18
F1: T 3.06; G 3.33; I 2.71; R 3.3; D 3.29; K 3.28; A 3.21; Y 2.27; S 3.23; E 3.94; M 3.78; H 3.69; L 3.05; V 3.7; P 3.46; C 2.5; N 3.75; W 2.55; Q 2.9
N5: K 1.94; I 1.61; D 2.21; Y 1.61; S 1.54; Q 2.64; P 2.52; M 1.61; L 1.34; H 2.19; C 2.42; T 2.25; W 3.23; V 1.63; F 1.9; A 1.9; R 1.95; G 2.47; E 2.35
Y3: D 3.22; L 1.92; H 2.11; W 2.19; S 1.96; G 2.35; T 2.22; N 2.48; C 2.17; I 2.26; K 2.08; R 2.73; E 3.75; A 2.08; P 1.72; Q 2.62; V 2.22; M 2.2; F 2.12
A6: F 1.8; C 1.82; H 2.1; D 2.67; G 1.97; E 2.8

Variants of: B2
Assay: as above
Settings: c terminus: a fixed tail appended

Protein stability index of substitutions, site by site:
L13: E 3.29; Y 2.14; P 2.82; W 2.06; Q 2.76; C 2.77; I 3.23; V 1.48; G 2.65; K 2.36; D 3.15; M 1.8; N 2.31; T 2.65; S 2.54; H 2.23; R 2.24; A 1.99; F 2.03
S14: Y 2.35; H 2.18; V 4.08; E 1.23; K 1.3; Q 2.93; F 4.03; P 1.81; M 3.24; T 3.75; N 2.86; G 2.12; R 2.06; D 2.06; A 1.47
A15: G 2.03; P 2.36; T 2.15; F 2.78; N 1.81; L 3.15; S 1.54; V 2.31; K 2.27; Y 2.09; R 2.34; E 2.26; D 2.32; I 3.79; M 2.94; W 2.71; C 2.3; Q 2.98; H 2.63
S20: K 1.6; W 3.33; R 2.13; H 3.47; E 1.3; G 2.46; Y 2.2; D 1.48; L 3.21; P 2.23; T 1.9; C 3.5; M 2.44; I 4.43; N 2.26; A 3.74; V 3.17
A12: S 2.35; L 2.59; V 3.4; W 1.59; H 2.14; R 2.29; K 2.32; T 1.26; I 2.25; P 2.2; M 2.5; D 2.61; N 1.68; F 2.73; Y 2.82; Q 1.73; G 1.6; E 1.96; C 1.82
Q23: V 2.9; L 2.86; C 2.22; I 2.73; E 3.74; Y 2.51; P 2.57; S 2.91; A 3.15; T 2.83; N 1.99; M 2.85; K 2.07; H 2.74; R 2.04; D 1.97; W 2.43; F 2.92
H24: L 2.44; Y 2.56; N 2.29; K 1.76; C 3.67; A 4.29; W 1.9; Q 3.32; T 2.79; F 3.48; V 3.61; R 3; P 2.62; E 1.47; S 2.83; M 3.02; I 2.4; D 1.67
Q21: Y 4.14; G 3.38; S 2.38; D 1.97; L 1.8; K 2.1; R 3.07; E 1.78; F 2.97; M 3.44; I 2.71; N 3.31; H 2.42; V 2.99; A 4.28; T 3.01; W 2.31; P 2.18
K22: R 4.21; N 1.83; C 3.44; G 3.43; I 3.1; P 4.17; L 3.34; M 2.41; A 2.91; W 4.77; S 3.07; T 4.43; F 2.69; H 2.52; Q 2.76; Y 3.64; E 4.71; D 1.69
A18: G 2.29; E 1.95; K 2.02; M 3.46; P 2.04; C 1.6; F 3; H 2.73; V 2.36; Q 1.9; D 2.22; L 3.18; I 2.4; Y 2.37; N 1.19; S 1.99; R 2.67; T 1.52
L17: I 2.16; C 1.6; K 1.81; A 1.65; V 1.59; N 2.56; D 2.94; F 2.21; R 2.45; G 1.95; H 2.17; E 2.26; S 2.03; P 2.76; M 2.69; Y 1.97; Q 2.17; T 1.95
S19: C 2.07; F 2.5; M 3.29; P 2.08; D 1.89; N 3; G 3.14; K 2.51; T 3.75; I 3.22; R 2.74; A 4.1; E 2.95; Y 2.84; L 2.35; H 3.15; Q 2.43; V 2.64; W 2.57
A16: Y 2.95; G 2.4; H 2.86; K 1.97; V 2.05; W 1.09; R 2.43; L 3.68; D 2.18; F 3.07; E 1.82; P 2.39; T 2.12; I 4.08; S 2.41; N 1.95; Q 2.38
